Results on one molecule are retold here after patent US20230174640A1 (VITAERIS, published 2023).

This experiment has as its target T1, cynomolgus monkey IL-6 (cynomolgus monkey, UniProt P79341 28-212, limits assumed).
T1 sequence (looked up): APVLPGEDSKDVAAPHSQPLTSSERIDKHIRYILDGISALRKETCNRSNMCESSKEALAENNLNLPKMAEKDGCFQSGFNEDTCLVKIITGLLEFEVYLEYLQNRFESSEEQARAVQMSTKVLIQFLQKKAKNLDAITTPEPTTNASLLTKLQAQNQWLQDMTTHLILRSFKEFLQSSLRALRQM
In words: tissue cross-reactivity study, cynomolgus monkey tissues.

B1: clazakizumab (antibody, human IgG1, kappa, N297A, V domains shown)
VH: EVQLVESGGGLVQPGGSLRLSCAASGFSLSNYYVTWVRQAPGKGLEWVGIIYGSDETAYATSAIGRFTISRDNSKNTLYLQMNSLRAEDTAVYYCARDDSSDWDAKFNLWGQGTLVTVSS
VL: AIQMTQSPSSLSASVGDRVTITCQASQSINNELSWYQQKPGKAPKLLIYRASTLASGVPSRFSGSGSGTDFTLTISSLQPDDFATYYCQQGYSLRNIDNAFGGGTKVEIKR
notes: Humanized IgG1 monoclonal antibody; also called anti-IL-6 mAb clazakizumab
Consider B1, for which the binding result is “binds”.
